Experimental data: paper doi:10.1101/2020.08.02.233007 (bioRxiv, 2020)
Changes are numbered by the printed parent chain. Numbers in names are those of the source. Each block holds one binder with its values, some of them ahead of it.

Key:
[1] = molecular target: T1, recombinant full-length UVR8^W285A from Sf9 cells (Arabidopsis, UniProt Q9FN03 1-440, W285A); assay: grating-coupled interferometry
T1 sequence: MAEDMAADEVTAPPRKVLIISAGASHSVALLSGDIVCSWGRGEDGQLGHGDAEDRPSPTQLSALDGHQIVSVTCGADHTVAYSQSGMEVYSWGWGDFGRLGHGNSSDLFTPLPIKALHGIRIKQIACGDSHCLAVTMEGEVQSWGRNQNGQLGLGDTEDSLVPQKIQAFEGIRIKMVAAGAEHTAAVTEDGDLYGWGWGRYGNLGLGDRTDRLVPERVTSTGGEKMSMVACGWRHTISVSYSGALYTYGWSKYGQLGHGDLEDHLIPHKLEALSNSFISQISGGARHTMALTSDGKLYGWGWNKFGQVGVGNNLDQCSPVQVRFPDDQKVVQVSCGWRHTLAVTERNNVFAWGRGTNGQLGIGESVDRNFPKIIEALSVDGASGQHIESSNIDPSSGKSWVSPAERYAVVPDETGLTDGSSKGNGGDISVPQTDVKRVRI

[2] = molecular target: T2, recombinant full-length UVR8 (wild type) from Sf9 cells (Arabidopsis, UniProt Q9FN03 1-440); assay: grating-coupled interferometry
T2 sequence: T1 sequence with A285W

[3] = molecular target: T3, recombinant full-length UVR8^W285A from Sf9 cells (Arabidopsis), Q9FN03; assay: SEC; conditions: remark: other sources report otherwise
T3 chain: T1 sequence

cross-linking = molecular target: the molecule itself; assay: cross-linking
[4] = molecular target: T4, UVR8^W285A overexpressed in uvr8-7/Pro35S:UVR8^W285A seedlings (Arabidopsis thaliana), Q9FN03; assay: cross-linking; conditions: remark: other sources report otherwise
T4 chain: T1 sequence

binding result [1]: binds
binding result [2]: binds
B1: COP1 WD40 domain (COP1^349–675), recombinant from Sf9 cells (domain or fragment)
chain: TFTRYSRLRVIAEIRHGDIFHSANIVSSIEFDRDDELFATAGVSRCIKVFDFSSVVNEPADMQCPIVEMSTRSKLSCLSWNKHEKNHIASSDYEGIVTVWDVTTRQSLMEYEEHEKRAWSVDFSRTEPSMLVSGSDDCKVKVWCTRQEASVINIDMKANICCVKYNPGSSNYIAVGSADHHIHYYDLRNISQPLHVFSGHKKAVSYVKFLSNNELASASTDSTLRLWDVKDNLPVRTFRGHTNEKNFVGLTVNSEYLACGSETNEVYVYHKEITRPVTSHRFGSPDMDDAEEEAGSYFISAVCWKSDSPTMLTANSQGTIKVLVLAA

stoichiometry N [3]: 2
B2: recombinant full-length UVR8^W285A from Sf9 cells, Q9FN03 1-440 (natural protein)
chain: T1 sequence

B3: UVR8^W285F overexpressed in uvr8-7/Pro35S:UVR8^W285F seedlings (natural protein)
chain: T1 sequence with A285F
stoichiometry N (cross-linking): 2

stoichiometry N [4]: 2
B4: UVR8^W285A overexpressed in uvr8-7/Pro35S:UVR8^W285A seedlings, Q9FN03 1-440 (natural protein)
chain: T1 sequence
